Source: patent US20230348881

Key:
[1] = system: exemplary modified PPE proproteins
[2] = system: wild-type PPE proprotein as used in Example 2
Chain of wild-type PPE proprotein as used in Example 2 (chain, as listed by the source): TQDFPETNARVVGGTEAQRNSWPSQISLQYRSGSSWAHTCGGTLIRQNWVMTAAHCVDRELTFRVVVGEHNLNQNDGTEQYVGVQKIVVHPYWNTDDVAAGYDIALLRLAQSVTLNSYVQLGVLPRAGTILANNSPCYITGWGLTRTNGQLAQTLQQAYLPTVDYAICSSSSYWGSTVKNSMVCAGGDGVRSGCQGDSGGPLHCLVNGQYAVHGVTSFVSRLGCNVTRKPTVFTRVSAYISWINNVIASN

In the case of purified trypsin, the “catalytic activity after protease digestion (colorimetric substrate assay), FIG. 4B” value [1] is reported as “catalytically-inactive after incubation with trypsin or no protease”, the “catalytic activity after protease digestion (colorimetric substrate assay), FIG. 4B” value [2] is reported as “the wild-type PPE protein was catalytically-active after incubation with trypsin” and the “protease cleavage by SDS-PAGE and Coomassie blue staining” value [2] is reported as “trypsin cleaved the wild-type PPE as a control”.
